# Reference: patent US20240269306A1, “B7H4-TARGETED ANTIBODY-DRUG CONJUGATES AND METHODS OF USE THEREOF” (Mersana Therapeutics, Inc., priority 2021, published 2024)
# Read-outs that look alike come from different tables or passages of the source.
# T1: Recombinant human B7-H4 protein (R&D Systems #6576-B7-050) (human) (UniProt Q7Z7D3)
# T1 sequence: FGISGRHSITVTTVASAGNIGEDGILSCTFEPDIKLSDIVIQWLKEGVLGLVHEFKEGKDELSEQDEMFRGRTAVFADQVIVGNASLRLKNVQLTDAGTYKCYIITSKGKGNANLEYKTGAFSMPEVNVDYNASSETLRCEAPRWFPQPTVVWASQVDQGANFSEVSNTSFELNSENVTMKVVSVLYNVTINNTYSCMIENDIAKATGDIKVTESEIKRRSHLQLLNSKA
# T2: Human B7-H4 on the cell surface (MX-1, HCC1569, CAMA-1 cells; HEK-293 cells stably transfected with human B7-H4) (human) (UniProt Q7Z7D3)
# T2 sequence: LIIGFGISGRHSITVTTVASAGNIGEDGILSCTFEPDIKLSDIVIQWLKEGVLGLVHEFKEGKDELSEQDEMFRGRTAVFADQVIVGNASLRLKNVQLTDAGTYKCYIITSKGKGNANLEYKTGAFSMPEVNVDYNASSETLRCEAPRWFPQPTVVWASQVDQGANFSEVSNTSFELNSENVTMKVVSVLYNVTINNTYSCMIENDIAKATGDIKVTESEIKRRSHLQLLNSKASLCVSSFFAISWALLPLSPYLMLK
# B1: 1D11 antibody (antibody, from another filing, V domains shown)
# VH: QVQLQQSGAELVRPGTSVKMSCKASGYTFTSYWIGWAKQRPGHGFEWIGDIYPGGGYTNYNEKFKGKATLTADKSSSTAYMQFSSLTSEDSAIYYCARLDGSSYRGAMDSWGQGTSITVSS
# VL: DIQMTQSPSSLSASLGGKVTITCKASQGFNKYVAWYQHKPGQCPRLLIHYTSTLQPGIPARFSGSGSGRDYSFSISNLEPEDSATYFCLQYGNLLYAFGGGTKLEIKR
# Legend:
# [1] = biological target: T1, Recombinant human B7-H4 protein (R&D Systems #6576-B7-050) (human); assay: BLI (Octet)
# [2] = biological target: T2, Human B7-H4 on the cell surface (MX-1, HCC1569, CAMA-1 cells; HEK-293 cells stably transfected with human B7-H4) (human); assay: flow cytometry, MX-1 cells
# [3] = biological target: T2, Human B7-H4 on the cell surface (MX-1, HCC1569, CAMA-1 cells; HEK-293 cells stably transfected with human B7-H4) (human); assay: flow cytometry, MX-1 cells; remark: listed apart in the source
# [4] = biological target: T2, Human B7-H4 on the cell surface (MX-1, HCC1569, CAMA-1 cells; HEK-293 cells stably transfected with human B7-H4) (human); assay: flow cytometry, HCC1569 cells
# [5] = biological target: T1, Recombinant human B7-H4 protein (R&D Systems #6576-B7-050) (human); assay: ELISA, coated recombinant human B7-H4
# [6] = biological target: T1, Recombinant human B7-H4 protein (R&D Systems #6576-B7-050) (human); assay: ELISA, coated recombinant human B7-H4; remark: listed apart in the source
# [7] = biological target: T1, Recombinant human B7-H4 protein (R&D Systems #6576-B7-050) (human); assay: BLI (Octet), antibody on anti-human Fc sensor, human B7-H4 in solution, 25 C
binder,measurement,setting,value
B1,fold difference of kon against B7-H4 2F9 and variant antibodies,[1],< 2 fold
same,fold lower Kd than B7-H4 2F9,[1],> 100 fold
same,EC50,[2],4.9 nM
same,EC50,[3],8.83 nM
same,EC50,[4],3.44 nM
same,EC50,[5],0.52 nM
same,EC50,[6],0.86 nM
same,Kd,[7],0.117 nM
same,koff,[7],1.46e-05 s⁻¹
same,kon,[7],125000 M⁻¹ s⁻¹
